Numbering of substitutions follows the chain as printed. Numbered stars: 1 amine (or outer) side, 2 acyl side, 3 side chain; on linkers, the order of the positions; unused ones are H or OH. Bridge positions count the residues as written; N and C are the ends. Side chains are listed from the residue outwards. Ends that are not written are not given here. * marks the point of attachment. C20 diacid = O=C(O)CCCCCCCCCCCCCCCCCCC(=O)*; γGlu = O=C(O)[C@H](CCC(=O)[*:2])N[*:1]
B1: N^α1-[2-[2-[2-[[2-[2-[2-[[(4S)-4-carboxy-4-(19-carboxynonadecanoylamino)butanoyl]amino]ethoxy]ethoxy]acetyl]amino]ethoxy]ethoxy]acetyl]-[Arg17,Pro21,Pro27]-h-am … (peptide)
peptide: KCNTATCATQRLANFLRHSSPNFGAIPSSTNVGSNTY
modifications: C20 diacid-gGlu-2xOEG on the alpha amino group of the N-terminal residue; disulfide bridge Cys2-Cys7; C-terminal amide
notes: also called compound 24
B2: N^α1-[(4S)-4-carboxy-4-(19-carboxynonadecanoylamino)butanoyl]-[Glu14,Arg17,Pro21,Pro27,Pro34]-h-amylin (peptide)
peptide: {C20 diacid-γGlu}-KCNTATCATQRLAEFLRHSSPNFGAIPSSTNVGPNTY-NH2
modifications: disulfide 2-7
SMILES: CC[C@H](C)[C@H](NC(=O)[C@H](C)NC(=O)CNC(=O)[C@H](Cc1ccccc1)NC(=O)[C@H](CC(N)=O)NC(=O)[C@@H]1CCCN1C(=O)[C@H](CO)NC(=O)[C@H](CO)NC(=O)[C@H](Cc1c[nH]cn1)NC(=O)[C@H](CCCNC(=N)N)NC(=O)[C@H](CC(C)C)NC(=O)[C@H](Cc1ccccc1)NC(=O)[C@H](CCC(=O)O)NC(=O)[C@H](C)NC(=O)[C@H](CC(C)C)NC(=O)[C@H](CCCNC(=N)N)NC(=O)[C@H](CCC(N)=O)NC(=O)[C@@H](NC(=O)[C@H](C)NC(=O)[C@@H]1CSSC[C@H](NC(=O)[C@H](CCCCN)NC(=O)CC[C@H](NC(=O)CCCCCCCCCCCCCCCCCCC(=O)O)C(=O)O)C(=O)N[C@@H](CC(N)=O)C(=O)N[C@@H]([C@@H](C)O)C(=O)N[C@@H](C)C(=O)N[C@@H]([C@@H](C)O)C(=O)N1)[C@@H](C)O)C(=O)N1CCC[C@H]1C(=O)N[C@@H](CO)C(=O)N[C@@H](CO)C(=O)N[C@H](C(=O)N[C@@H](CC(N)=O)C(=O)N[C@H](C(=O)NCC(=O)N1CCC[C@H]1C(=O)N[C@@H](CC(N)=O)C(=O)N[C@H](C(=O)N[C@@H](Cc1ccc(O)cc1)C(N)=O)[C@@H](C)O)C(C)C)[C@@H](C)O
notes: also called compound 32
B3: N^ε1-[(4S)-4-carboxy-4-[[(4S)-4-carboxy-4-(19-carboxynonadecanoylamino)butanoyl]amino]butanoyl]-[Asp14,Arg17,Pro21,Pro27,Asp35]-h-amylin (peptide)
peptide: K([γGlu-γGlu-C20 diacid])CNTATCATQRLADFLRHSSPNFGAIPSSTNVGSDTY-NH2
modifications: disulfide 2-7; N-terminus assumed
SMILES: CC[C@H](C)[C@H](NC(=O)[C@H](C)NC(=O)CNC(=O)[C@H](Cc1ccccc1)NC(=O)[C@H](CC(N)=O)NC(=O)[C@@H]1CCCN1C(=O)[C@H](CO)NC(=O)[C@H](CO)NC(=O)[C@H](Cc1c[nH]cn1)NC(=O)[C@H](CCCNC(=N)N)NC(=O)[C@H](CC(C)C)NC(=O)[C@H](Cc1ccccc1)NC(=O)[C@H](CC(=O)O)NC(=O)[C@H](C)NC(=O)[C@H](CC(C)C)NC(=O)[C@H](CCCNC(=N)N)NC(=O)[C@H](CCC(N)=O)NC(=O)[C@@H](NC(=O)[C@H](C)NC(=O)[C@@H]1CSSC[C@H](NC(=O)[C@@H](N)CCCCNC(=O)CC[C@H](NC(=O)CC[C@H](NC(=O)CCCCCCCCCCCCCCCCCCC(=O)O)C(=O)O)C(=O)O)C(=O)N[C@@H](CC(N)=O)C(=O)N[C@@H]([C@@H](C)O)C(=O)N[C@@H](C)C(=O)N[C@@H]([C@@H](C)O)C(=O)N1)[C@@H](C)O)C(=O)N1CCC[C@H]1C(=O)N[C@@H](CO)C(=O)N[C@@H](CO)C(=O)N[C@H](C(=O)N[C@@H](CC(N)=O)C(=O)N[C@H](C(=O)NCC(=O)N[C@@H](CO)C(=O)N[C@@H](CC(=O)O)C(=O)N[C@H](C(=O)N[C@@H](Cc1ccc(O)cc1)C(N)=O)[C@@H](C)O)C(C)C)[C@@H](C)O
notes: also called compound 2
B4: N^α1-[(4S)-4-carboxy-4-(19-carboxynonadecanoylamino)butanoyl]-[Arg17,Pro21,Pro27,Lys35]-h-amylin (peptide)
peptide: B1 peptide with N35K
modifications: C20 diacid-gGlu on the alpha amino group of the N-terminal residue; disulfide bridge Cys2-Cys7; C-terminal amide
notes: also called compound 34
B5: N^α1-[(4S)-4-carboxy-4-(19-carboxynonadecanoylamino)butanoyl]-[Glu14,Arg17,Pro21,Pro27,His34]-h-amylin (peptide)
peptide: {C20 diacid-γGlu}-KCNTATCATQRLAEFLRHSSPNFGAIPSSTNVGHNTY-NH2
modifications: disulfide 2-7
SMILES: CC[C@H](C)[C@H](NC(=O)[C@H](C)NC(=O)CNC(=O)[C@H](Cc1ccccc1)NC(=O)[C@H](CC(N)=O)NC(=O)[C@@H]1CCCN1C(=O)[C@H](CO)NC(=O)[C@H](CO)NC(=O)[C@H](Cc1c[nH]cn1)NC(=O)[C@H](CCCNC(=N)N)NC(=O)[C@H](CC(C)C)NC(=O)[C@H](Cc1ccccc1)NC(=O)[C@H](CCC(=O)O)NC(=O)[C@H](C)NC(=O)[C@H](CC(C)C)NC(=O)[C@H](CCCNC(=N)N)NC(=O)[C@H](CCC(N)=O)NC(=O)[C@@H](NC(=O)[C@H](C)NC(=O)[C@@H]1CSSC[C@H](NC(=O)[C@H](CCCCN)NC(=O)CC[C@H](NC(=O)CCCCCCCCCCCCCCCCCCC(=O)O)C(=O)O)C(=O)N[C@@H](CC(N)=O)C(=O)N[C@@H]([C@@H](C)O)C(=O)N[C@@H](C)C(=O)N[C@@H]([C@@H](C)O)C(=O)N1)[C@@H](C)O)C(=O)N1CCC[C@H]1C(=O)N[C@@H](CO)C(=O)N[C@@H](CO)C(=O)N[C@H](C(=O)N[C@@H](CC(N)=O)C(=O)N[C@H](C(=O)NCC(=O)N[C@@H](Cc1c[nH]cn1)C(=O)N[C@@H](CC(N)=O)C(=O)N[C@H](C(=O)N[C@@H](Cc1ccc(O)cc1)C(N)=O)[C@@H](C)O)C(C)C)[C@@H](C)O
notes: also called compound 17
B6: N^α1-[(4S)-4-carboxy-4-(19-carboxynonadecanoylamino)butanoyl]-[Arg17,Pro21,Pro27,Pro34,Glu35]-h-amylin (peptide)
peptide: {C20 diacid-γGlu}-KCNTATCATQRLANFLRHSSPNFGAIPSSTNVGPETY-NH2
modifications: disulfide 2-7
SMILES: CC[C@H](C)[C@H](NC(=O)[C@H](C)NC(=O)CNC(=O)[C@H](Cc1ccccc1)NC(=O)[C@H](CC(N)=O)NC(=O)[C@@H]1CCCN1C(=O)[C@H](CO)NC(=O)[C@H](CO)NC(=O)[C@H](Cc1c[nH]cn1)NC(=O)[C@H](CCCNC(=N)N)NC(=O)[C@H](CC(C)C)NC(=O)[C@H](Cc1ccccc1)NC(=O)[C@H](CC(N)=O)NC(=O)[C@H](C)NC(=O)[C@H](CC(C)C)NC(=O)[C@H](CCCNC(=N)N)NC(=O)[C@H](CCC(N)=O)NC(=O)[C@@H](NC(=O)[C@H](C)NC(=O)[C@@H]1CSSC[C@H](NC(=O)[C@H](CCCCN)NC(=O)CC[C@H](NC(=O)CCCCCCCCCCCCCCCCCCC(=O)O)C(=O)O)C(=O)N[C@@H](CC(N)=O)C(=O)N[C@@H]([C@@H](C)O)C(=O)N[C@@H](C)C(=O)N[C@@H]([C@@H](C)O)C(=O)N1)[C@@H](C)O)C(=O)N1CCC[C@H]1C(=O)N[C@@H](CO)C(=O)N[C@@H](CO)C(=O)N[C@H](C(=O)N[C@@H](CC(N)=O)C(=O)N[C@H](C(=O)NCC(=O)N1CCC[C@H]1C(=O)N[C@@H](CCC(=O)O)C(=O)N[C@H](C(=O)N[C@@H](Cc1ccc(O)cc1)C(N)=O)[C@@H](C)O)C(C)C)[C@@H](C)O
notes: also called compound 29

The binders below were run against T1, human calcitonin receptor (human, UniProt P30988 25-474) (assay: ratio of IC50 at hCTR to IC50 at the human amylin receptor (reference)).
T1 construct: whole, on cells; also called hCTR; hCT
T1 sequence (looked up): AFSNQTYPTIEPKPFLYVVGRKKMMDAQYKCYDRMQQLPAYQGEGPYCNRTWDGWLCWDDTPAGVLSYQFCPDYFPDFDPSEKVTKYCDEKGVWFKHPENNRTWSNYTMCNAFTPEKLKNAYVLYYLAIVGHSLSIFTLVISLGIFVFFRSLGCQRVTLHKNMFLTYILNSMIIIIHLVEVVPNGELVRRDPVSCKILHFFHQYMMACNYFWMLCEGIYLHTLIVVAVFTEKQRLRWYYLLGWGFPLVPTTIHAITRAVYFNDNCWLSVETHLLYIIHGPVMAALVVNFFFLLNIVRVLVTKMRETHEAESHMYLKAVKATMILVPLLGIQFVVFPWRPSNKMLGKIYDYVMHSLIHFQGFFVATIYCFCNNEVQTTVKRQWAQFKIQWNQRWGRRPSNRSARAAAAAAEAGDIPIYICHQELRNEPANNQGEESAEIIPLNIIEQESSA
Summary of the method: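 Competition binding by SPA with cell membranes (35 ng/μL) and SPA beads in 50 mM Hepes pH 7.4 with 1 mM CaCl2, 5 mM MgCl2, 0.1% OA and 0.02% Tween20. Incubated 120 min at 25 °C with shaking, then counted.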
For B1, the “Ratio hCT/hAmylin binding” value was 90. In the case of B2, the “Ratio hCT/hAmylin binding” value is reported as 10.9. B3 was tested, and the “Ratio hCT/hAmylin binding” value was 47.5. For B4, the “Ratio hCT/hAmylin binding” value was 64.4. With B5 the “Ratio hCT/hAmylin binding” value was 12.5. With B6 the “Ratio hCT/hAmylin binding” value was 13.9.

These binders were tested against T2, human amylin receptor (amylin 3(a) receptor: human calcitonin receptor plus RAMP-3) (human, UniProt P30988 25-474; O60896 24-148) (assay: SPA competition binding, membranes with human amylin 3(a) receptor, displacement of 125I-rat amylin (Assay V)).
T2 construct: whole, on cells; the species of RAMP-3 is told only through the name 'human amylin receptor'; also called hAmylin-R; hAmylinR
T2 sequence (looked up) 1: T1 sequence (looked up)
T2 sequence (looked up) 2: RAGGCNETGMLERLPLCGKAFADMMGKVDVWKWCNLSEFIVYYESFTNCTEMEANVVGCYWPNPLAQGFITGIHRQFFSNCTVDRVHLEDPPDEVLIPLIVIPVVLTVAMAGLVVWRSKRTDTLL
Protocol: The binding assay was performed using scintillation proximity assay (SPA) beads (RPNQ0001) from PerkinElmer and cell membranes from the Amylin 3(a)/CRE-luc cells (as described in Assay (II)) were used. Membranes were prepared in the following way; the cells were rinsed with PBS and incubated with Versene for approximately 5 min before harvesting. The cells were flushed with PBS and the cell-suspension was centrifuged for 5 min at 1000 rpm. Cells were homogenized (ultrathurrax) in a buffer containing 20 mM Na-HEPES and 10 mM EDTA (pH 7.4) and centrifuged at 20.000 rpm for 15 min. The resulting pellet was resuspended, homogenized and centrifuged (20.000 rpm, 15 min) in a buffer containing 20 mM Na-HEPES and 0.1 mM EDTA (pH 7.4, buffer 2). The resulting pellet was resuspended in buffer 2 and protein concentration was measured (BCA protein Assay, Pierce). The homogenate was kept cold during the whole procedure. The membranes were kept at −80° C. until use. The assay was performed in a 384 well Optiplate (PerkinElmer) in a total volume of 40 ul. Membranes were mixed with SPA beads. Final concentration of membranes 35 ng/μL final and SPA beads was 0.05 mg/well. Test-compounds were dissolved in DMSO and further diluted in assay buffer (50 mM Hepes, pH 7.4, 1 mM CaCl2, 5 mM MgCl₂, 0.1% OA and 0.02% Tween20). […] The final mixture was incubated with shaking at 400 rpm for 120 min at 25° C. prior to centrifugation (1500 rpm, 10 min). Samples were analyzed on TopCounter™ (Packard). The IC₅₀ was calculated using (one site binding competition analysis) GraphPad Prism5 as a measure of receptor affinity.
Binder B1 has an IC50 of 1.14 nM. B2 gave an IC50 of 0.1 nM. B3 gave an IC50 of 0.411 nM. With B4 the IC50 was 1.14 nM. For B5, the IC50 was 0.878 nM. With B6 the IC50 was 0.577 nM.

The binders below were run against T1, human calcitonin receptor (assay: SPA competition binding, membranes with human calcitonin receptor, displacement of 125I-calcitonin (Assay VII)).
Summary of the method: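 BHK hCTR membranes 35 ng/μL + SPA beads 0.05 mg/well; buffer 50 mM Hepes pH 7.4, 1 mM CaCl2, 5 mM MgCl₂, 0.1% OA, 0.02% Tween20. 120 min, 25° C., shaking. Scintillation count; IC50 by one-site binding competition.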
Work on B1 yielded an IC50 of 102 nM. In the case of B2, the IC50 is reported as 1.09 nM. For B3, the IC50 was 19.5 nM. Work on B4 yielded an IC50 of 73.4 nM. B5 gave an IC50 of 10.9 nM. Work on B6 yielded an IC50 of 8.01 nM.
